Measured values taken from patent US20160304617A1.

Legend:
[1] = molecular target: Human 5T4 full length (human) (UniProt Q13641); assay: flow cytometry on PA1 cells, 5 µg/ml probe, anti-Fc FITC
[2] = molecular target: Human 5T4 full length (human) (UniProt Q13641); assay: flow cytometry on PC3 cells, 5 µg/ml probe, anti-Fc FITC
[3] = molecular target: Human 5T4 full length (human) (UniProt Q13641); assay: flow cytometry on A431 cells, 5 µg/ml probe, anti-Fc FITC
[4] = molecular target: Human 5T4 full length (human) (UniProt Q13641); assay: flow cytometry on DLD1 cells, 5 µg/ml probe, anti-Fc FITC
[5] = molecular target: Human 5T4 full length (human) (UniProt Q13641); assay: flow cytometry on HT29 cells, 5 µg/ml probe, anti-Fc FITC
[6] = molecular target: Human 5T4 full length (human) (UniProt Q13641); assay: flow cytometry on BxPC3 cells, 5 µg/ml probe, anti-Fc FITC
[7] = molecular target: Human 5T4 full length (human) (UniProt Q13641); assay: flow cytometry on LNCaP cells, 5 µg/ml probe, anti-Fc FITC
[8] = molecular target: Human 5T4 full length (human) (UniProt Q13641); assay: flow cytometry on SKOV3 cells, 5 µg/ml probe, anti-Fc FITC
[9] = molecular target: Human 5T4 full length (human) (UniProt Q13641); assay: flow cytometry on MDAMB361 cells, 5 µg/ml probe, anti-Fc FITC
[10] = molecular target: Human 5T4 full length (human) (UniProt Q13641); assay: flow cytometry on recombinant MDA-MB-231-5T4 FL cells at 5 µg/ml
[11] = molecular target: Human 5T4 full length (human) (UniProt Q13641); assay: flow cytometry on MBA-MB-231 cells (as the row is labelled), 5 µg/ml probe, anti-Fc FITC
[12] = molecular target: Human 5T4 full length (human) (UniProt Q13641); assay: flow cytometry on Rec-MDA-MB-231-5T4 cells (as the row is labelled), 5 µg/ml probe, anti-Fc FITC

Sequence of UniProt Q13641 (Q13641 32-420): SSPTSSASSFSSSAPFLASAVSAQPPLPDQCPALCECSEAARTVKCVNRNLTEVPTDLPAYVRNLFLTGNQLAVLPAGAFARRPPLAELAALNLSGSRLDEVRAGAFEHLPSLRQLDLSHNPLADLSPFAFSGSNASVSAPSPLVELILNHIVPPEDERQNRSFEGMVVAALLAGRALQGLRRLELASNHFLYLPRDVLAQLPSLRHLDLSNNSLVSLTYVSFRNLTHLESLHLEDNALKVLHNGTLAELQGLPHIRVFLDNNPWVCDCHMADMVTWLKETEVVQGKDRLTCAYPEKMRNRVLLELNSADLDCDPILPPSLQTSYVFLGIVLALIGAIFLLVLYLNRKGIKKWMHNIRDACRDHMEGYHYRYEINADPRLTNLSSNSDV

- Median fluorescence intensity (MFI) [1]: 6 MFI
- Median fluorescence intensity (MFI) [2]: 3 MFI
- Median fluorescence intensity (MFI) [3]: 13 MFI
- Median fluorescence intensity (MFI) [4]: 14 MFI
- Median fluorescence intensity (MFI) [5]: 12 MFI
- Median fluorescence intensity (MFI) [6]: 14 MFI
- Median fluorescence intensity (MFI) [7]: 23 MFI
- Median fluorescence intensity (MFI) [8]: 6 MFI
- Median fluorescence intensity (MFI) [9]: 5 MFI
- fold less binding (against the anti-5T4 proteins) [10]: 200 fold
- Median fluorescence intensity (MFI) [11]: 4 MFI
- Median fluorescence intensity (MFI) [12]: 8 MFI
Substance: unrelated (control) Fc fusion protein
